Here are results for four molecules from US20080175847A1 (Genentech, published 2008).

The target of test [1] is T1, C-terminal His-tagged human DLL4 (amino acid 1-404) (human, UniProt Q9NR61 26-404).
T1 construct: range 26-404; the text calls it human DLL4-His; also called DLL4-His; human DLL4-His; not shown: C-terminal His tag
Description: SPR BIAcore-3000, antibody coupled to CM5 chip, DLL4-His injected, 25 C. As to the method: (§1) To determine the binding affinity of the anti-DLL4 Mabs, surface plasmon resonance (SRP) measurement with a BIAcore™-3000 was used (BIAcore, Inc., Piscataway, N.J.). Briefly, carboxymethylated dextran biosensor chips (CM5, BIAcore Inc.) were activated with N-ethyl-N′-(3-dimethylaminopropyl)-carbodiimide hydrochloride (EDC) and N-hydroxysuccinimide (NHS) according to the supplier's instructions. […] Next, IM ethanolamine was injected to block unreacted groups. […] Association rates (kon) and dissociation rates (koff) were calculated using a simple one-to-one Langmuir binding model (BIAcore Evaluation Software version 3.2). The equilibrium dissociation constant (Kd) was calculated as the ratio koff/kon.
In general terms: SPR reads the build-up and loss of mass on a sensor chip optically.

For another test, the target named is T2, His-tagged murine DLL4 (murine, UniProt Q9JI71 27-405, limits assumed).
T2 construct: domain: ECD5.5; also called murine DLL4-His; murine Delta4 (ECD5.5); not shown: His tag
T2 sequence (Q9JI71 27-405 limits assumed): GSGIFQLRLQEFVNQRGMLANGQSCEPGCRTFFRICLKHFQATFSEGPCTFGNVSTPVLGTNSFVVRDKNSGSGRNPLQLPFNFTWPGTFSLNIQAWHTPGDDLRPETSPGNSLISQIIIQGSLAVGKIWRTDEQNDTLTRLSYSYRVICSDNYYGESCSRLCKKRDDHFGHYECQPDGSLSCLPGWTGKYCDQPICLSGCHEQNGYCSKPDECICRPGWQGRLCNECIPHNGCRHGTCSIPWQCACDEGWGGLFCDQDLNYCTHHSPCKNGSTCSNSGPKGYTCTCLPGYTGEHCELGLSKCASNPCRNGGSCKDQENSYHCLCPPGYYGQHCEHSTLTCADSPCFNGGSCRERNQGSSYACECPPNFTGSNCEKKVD
Described as above. As for the experimental part:
as §1

As usually defined, the Kd is the free concentration of one partner at which half of the binding sites on the other are occupied at equilibrium, for simple one-to-one binding. Higher therefore signals weaker binding. For orientation: koff means the first-order rate constant of dissociation. A high value points to a short-lived complex. One may read the kon as the second-order rate constant of association. Low values mean slow association, high ones fast association.

T1 sequence (Q9NR61 26-404 limits assumed): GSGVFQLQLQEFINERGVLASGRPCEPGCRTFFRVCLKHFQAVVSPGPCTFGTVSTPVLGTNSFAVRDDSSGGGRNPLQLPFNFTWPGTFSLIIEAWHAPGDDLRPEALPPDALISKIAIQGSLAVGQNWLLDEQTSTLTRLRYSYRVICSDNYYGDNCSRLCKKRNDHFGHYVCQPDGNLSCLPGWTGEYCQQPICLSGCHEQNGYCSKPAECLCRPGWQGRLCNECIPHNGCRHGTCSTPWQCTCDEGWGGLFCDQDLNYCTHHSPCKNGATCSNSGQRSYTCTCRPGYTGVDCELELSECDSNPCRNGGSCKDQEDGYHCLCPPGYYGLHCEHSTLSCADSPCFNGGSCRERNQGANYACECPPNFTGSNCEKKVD

B1: YW26 (antibody, V domains shown)
VH: EVQLVESGGGLVQPGGSLRLSCAASGFTFTDNWISWVRQAPGKGLEWVGVINPNSGSTDYADSVKGRFTISADTSKNTAYLQMNSLRAEDTAVYYCARDNFGGYFDYWGQGTLVTVSS
VL: DIQMTQSPSSLSASVGDRVTITCRASQDVSTAVAWYQQKPGKAPKLLIYSASFLYSGVPSRFSGSGSGTDFTLTISSLQPEDFATYYCQQSYTTPPTFGQGTKVEIK
notes: Only the six HVRs are tied to the clone; also called clone 152.26; anti-DLL4 antibody
For B1, in test [1], the affinity, expressed as Kd, was 25 nM; the koff worked out at 0.00074 s⁻¹; the kon came out at 30000 M⁻¹ s⁻¹. Further, in the test with His-tagged murine DLL4, the Kd stood at 28 nM, the off-rate constant (koff) is 0.0016 s⁻¹ and the kon is 57000 M⁻¹ s⁻¹.

B2: YW26.34 (antibody, V domains shown)
VH: EVQLVESGGGLVQPGGSLRLSCAASGFTFTDNWISWVRQAPGKGLEWVGLINPTSGSTIYADSVKGRFTISADTSKNTAYLQMNSLRAEDTAVYYCARDNFGGYFDYWGQGTLVTVSS
VL: DIQMTQSPSSLSASVGDRVTITCRASQDVSTAVAWYQQKPGKAPKLLIYSASFLYSGVPSRFSGSGSGTDFTLTISSLQPEDFATYYCQQSYTGPSTFGQGTKVEIK
notes: Only the six HVRs are tied to the clone; also called clone 152.26.34
For B2, in test [1], the Kd turned out to be 0.35 nM, the koff is 6.7e-05 s⁻¹ and the kon came to 190000 M⁻¹ s⁻¹. In the test with His-tagged murine DLL4, this molecule registered a Kd of 0.18 nM, a koff of 6.5e-05 s⁻¹ and a kon of 360000 M⁻¹ s⁻¹.

B3: YW26.6 (antibody, V domains shown)
VH: EVQLVESGGGLVQPGGSLRLSCAASGFTFTDNWISWVRQAPGKGLEWVGLINPQSGSSDYADSVKGRFTISADTSKNTAYLQMNSLRAEDTAVYYCARDNFGGYFDYWGQGTLVTVSS
VL: DIQMTQSPSSLSASVGDRVTITCRASQDVSTAVAWYQQKPGKAPKLLIYSASFLYSGVPSRFSGSGSGTDFTLTISSLQPEDFATYYCQQSYTGQSTFGQGTKVEIK
notes: Only the six HVRs are tied to the clone; also called clone 152.26.6
In test [1], B3 had a Kd of 0.25 nM.

B4: YW26.14 (antibody, V domains shown)
VH: EVQLVESGGGLVQPGGSLRLSCAASGFSFRDNWISWVRQAPGKGLEWVGVINPNSGSTDYADSVKGRFTISADTSKNTAYLQMNSLRAEDTAVYYCARDNFGGYFDYWGQGTLVTVSS
VL: DIQMTQSPSSLSASVGDRVTITCRASQDVSTAVAWYQQKPGKAPKLLIYSASFLYSGVPSRFSGSGSGTDFTLTISSLQPEDFATYYCQQSVNGPATFGQGTKVEIK
notes: also called clone 152.26.14
As to B4, in test [1], the Kd came to 0.37 nM, the koff was 6.6e-05 s⁻¹ and the kon worked out at 180000 M⁻¹ s⁻¹. In the test with His-tagged murine DLL4, this molecule displayed a Kd of 0.22 nM, a koff of 7.3e-05 s⁻¹ and a kon of 330000 M⁻¹ s⁻¹.
